Source: paper PMC8557139, “Characterization of a thermotolerant aryl-alcohol oxidase from Moesziomyces antarcticus oxidizing 5-hydroxymethyl-2-furancarboxylic acid” (Applied Microbiology and Biotechnology, 2021)

What was measured:
[1] = biological target: T1, MaAAO (Moesziomyces antarcticus, UniProt A0A081CNK9); experiment: coupled […],6-DMP-HRP assay; substrate excess inhibition fit; assay type: biochemical; details: co-substrate O2, potassium phosphate pH 6.0, 25 °C
T1 construct: gene PAN0_057d6495; expressed with native signal peptide, secreted from Pichia pastoris X-33 (pPICZA); purified; non-covalent FAD; codon-optimised synthetic gene
T1 sequence (A0A081CNK9 20-638): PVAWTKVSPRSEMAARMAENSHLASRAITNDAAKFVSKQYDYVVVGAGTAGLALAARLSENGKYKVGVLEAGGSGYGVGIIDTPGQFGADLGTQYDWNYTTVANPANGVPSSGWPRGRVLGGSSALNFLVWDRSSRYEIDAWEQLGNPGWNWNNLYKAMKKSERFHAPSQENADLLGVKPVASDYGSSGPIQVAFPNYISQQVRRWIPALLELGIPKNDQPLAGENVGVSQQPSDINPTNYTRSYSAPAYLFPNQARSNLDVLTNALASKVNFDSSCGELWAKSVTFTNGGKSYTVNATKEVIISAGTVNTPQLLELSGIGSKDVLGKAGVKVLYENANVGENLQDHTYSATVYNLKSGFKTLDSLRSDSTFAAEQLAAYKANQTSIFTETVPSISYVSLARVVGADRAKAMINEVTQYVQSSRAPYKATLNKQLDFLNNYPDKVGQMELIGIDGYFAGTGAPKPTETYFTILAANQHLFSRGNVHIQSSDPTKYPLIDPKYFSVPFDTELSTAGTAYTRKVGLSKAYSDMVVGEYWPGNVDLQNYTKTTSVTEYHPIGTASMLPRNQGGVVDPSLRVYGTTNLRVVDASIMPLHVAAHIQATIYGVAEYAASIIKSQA

[2] = biological target: T1, MaAAO; experiment: m-anisaldehyde formation at […] nm; substrate excess inhibition fit; assay type: biochemical; details: co-substrate O2, 100 mM phosphate pH 6.0, 25 °C
[3] = biological target: T1, MaAAO; experiment: benzaldehyde formation at […] nm; substrate excess inhibition fit; assay type: biochemical; details: co-substrate O2, 100 mM phosphate pH 6.0, 25 °C
[4] = biological target: T1, MaAAO; experiment: UV/Vis spectrum of native and heat-denatured enzyme; assay type: binding; details: non-covalently bound
[5] = substrate: C/C=C/C=C/CO; experiment: purified protein; assay type: biochemical, Moesziomyces antarcticus; details: co-substrate O2, 100 mM phosphate pH 6.0, 25 °C
[6] = substrate: C=C(C)[C@@H]1CC=C(CO)CC1; experiment: purified protein; assay type: biochemical, Moesziomyces antarcticus; details: co-substrate O2, 50 mM (text: 100 mM) potassium phosphate pH 6.0, 25 °C
[7] = substrate: COc1cc(CO)ccc1O; experiment: purified protein; assay type: biochemical, Moesziomyces antarcticus; details: co-substrate O2, 100 mM phosphate pH 6.0, 25 °C
[8] = substrate: COc1ccc(CO)c(OC)c1; experiment: purified protein; assay type: biochemical, Moesziomyces antarcticus; details: co-substrate O2, 100 mM phosphate pH 6.0, 25 °C
[9] = substrate: COc1ccc(CO)cc1O; experiment: purified protein; assay type: biochemical, Moesziomyces antarcticus; details: co-substrate O2, 100 mM phosphate pH 6.0, 25 °C
[10] = substrate: COc1ccc(CO)cc1OC; experiment: purified protein; assay type: biochemical, Moesziomyces antarcticus; details: co-substrate O2, 100 mM phosphate pH 6.0, 25 °C
[11] = substrate: Nc1cccc(CO)c1; experiment: purified protein; assay type: biochemical, Moesziomyces antarcticus; details: co-substrate O2, 50 mM (text: 100 mM) potassium phosphate pH 6.0, 25 °C, fit with substrate excess inhibition
[12] = substrate: O=Cc1ccc(CO)o1; experiment: purified protein; assay type: biochemical, Moesziomyces antarcticus; details: co-substrate O2, 50 mM (text: 100 mM) potassium phosphate pH 6.0, 25 °C
[13] = substrate: OC/C=C/c1ccccc1; experiment: purified protein; assay type: biochemical, Moesziomyces antarcticus; details: co-substrate O2, 100 mM phosphate pH 6.0, 25 °C
[14] = substrate: OCc1ccc2c(c1)OCO2; experiment: purified protein; assay type: biochemical, Moesziomyces antarcticus; details: co-substrate O2, 100 mM phosphate pH 6.0, 25 °C
[15] = substrate: OCc1ccccc1; experiment: purified protein; assay type: biochemical, Moesziomyces antarcticus; details: co-substrate O2, 100 mM phosphate pH 6.0, 25 °C, fit with substrate excess inhibition

Molecule: Nc1cccc(CO)c1 [3-Aminobenzyl alcohol]
- KIU [1]: 3.27 ± 0.98 mM

Molecule: COc1cccc(CO)c1 [m-Anisyl alcohol]
- KIU [2]: 2.09 ± 0.33 mM

Molecule: OCc1ccccc1 [Benzyl alcohol]
- KIU [3]: 1.39 ± 0.35 mM

Molecule: Cc1cc2nc3c(=O)[nH]c(=O)nc-3n(C[C@H](O)[C@H](O)[C@H](O)COP(=O)(O)OP(=O)(O)OC[C@H]3O[C@@H](n4cnc5c(N)ncnc54)[C@H](O)[C@@H]3O)c2cc1C [FAD]
- UV/Vis spectrum of native and heat-denatured enzyme [4]: confirmed that MaAAO contains a non-covalently bound FAD cofactor

B1: MaAAO (Moesziomyces antarcticus) (protein)
chain: PVAWTKVSPRSEMAARMAENSHLASRAITNDAAKFVSKQYDYVVVGAGTAGLALAARLSENGKYKVGVLEAGGSGYGVGIIDTPGQFGADLGTQYDWNYTTVANPANGVPSSGWPRGRVLGGSSALNFLVWDRSSRYEIDAWEQLGNPGWNWNNLYKAMKKSERFHAPSQENADLLGVKPVASDYGSSGPIQVAFPNYISQQVRRWIPALLELGIPKNDQPLAGENVGVSQQPSDINPTNYTRSYSAPAYLFPNQARSNLDVLTNALASKVNFDSSCGELWAKSVTFTNGGKSYTVNATKEVIISAGTVNTPQLLELSGIGSKDVLGKAGVKVLYENANVGENLQDHTYSATVYNLKSGFKTLDSLRSDSTFAAEQLAAYKANQTSIFTETVPSISYVSLARVVGADRAKAMINEVTQYVQSSRAPYKATLNKQLDFLNNYPDKVGQMELIGIDGYFAGTGAPKPTETYFTILAANQHLFSRGNVHIQSSDPTKYPLIDPKYFSVPFDTELSTAGTAYTRKVGLSKAYSDMVVGEYWPGNVDLQNYTKTTSVTEYHPIGTASMLPRNQGGVVDPSLRVYGTTNLRVVDASIMPLHVAAHIQATIYGVAEYAASIIKSQA
notes: expressed with native signal peptide, secreted from Pichia pastoris X-33 (pPICZA); purified; non-covalent FAD; codon-optimised synthetic gene
- Km [5]: 26.5 ± 1.7 µM
- kcat [5]: 11.5 s⁻¹
- kcat/Km [5]: 435000 M⁻¹ s⁻¹
- Km [6]: 23.7 ± 1.7 µM
- kcat [6]: 9.2 s⁻¹
- kcat/Km [6]: 387000 M⁻¹ s⁻¹
- Km [7]: 30.0 ± 2.4 µM
- kcat [7]: 10.6 s⁻¹
- kcat/Km [7]: 354000 M⁻¹ s⁻¹
- Km [8]: 582 µM
- Km [9]: 60.9 ± 6.7 µM
- kcat [9]: 9.6 s⁻¹
- kcat/Km [9]: 158000 M⁻¹ s⁻¹
- Km [10]: 119.0 ± 7.0 µM
- kcat [10]: 11.7 s⁻¹
- kcat/Km [10]: 98000 M⁻¹ s⁻¹
- Km [11]: 1.74 ± 0.24 µM
- kcat [11]: 6.4 s⁻¹
- kcat/Km [11]: 3.67e+06 M⁻¹ s⁻¹
- Km [12]: 341 ± 20 µM
- kcat [12]: 5.4 s⁻¹
- kcat/Km [12]: 15700 M⁻¹ s⁻¹
- Km [13]: 26.9 µM
- kcat [13]: 8.9 s⁻¹
- kcat/Km [13]: 332000 M⁻¹ s⁻¹
- Km [14]: 12.2 ± 1.0 µM
- kcat [14]: 11.3 s⁻¹
- kcat/Km [14]: 926000 M⁻¹ s⁻¹
- kcat [15]: 11.2 s⁻¹
- kcat/Km [15]: 745000 M⁻¹ s⁻¹
